In patent US20240150489A1 (ICHNOS SCIENCES, published 2024):

T1: cynomolgus CD47-ECD-Avi-His (cynomolgus monkey)
T1 construct: also called recombinant cynomolgus monkey CD47-avi-his protein
T1 chain: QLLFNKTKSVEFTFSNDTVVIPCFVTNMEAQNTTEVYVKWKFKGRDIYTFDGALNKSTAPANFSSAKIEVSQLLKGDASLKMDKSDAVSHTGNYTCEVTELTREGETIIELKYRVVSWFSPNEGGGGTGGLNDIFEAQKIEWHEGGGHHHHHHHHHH


What was measured:
human CD47-ECD-Avi-His = target: T2, human CD47-ECD-Avi-His (human); assay: SPR, CD47 amine-coupled, Fab analyte, 1:1 fit
T2 construct: also called recombinant human CD47-avi-his protein; recombinant human CD47 protein
Procedure: (§1) Surface plasmon resonance (SPR) was used to measure the binding affinities of the Fab fragments for human and cynomolgus monkey CD47. Affinities were measured on a Biacore T200 instrument (Biacore, GE Healthcare) at 25° C. and analyzed with the Biacore T200 Evaluation Software (v3.1). […] Recombinant human CD47 protein and recombinant cynomolgus monkey CD47 protein were covalently immobilized to around 50 RU on flow-path 2 and flow-path 4 respectively of the Sensor Chip surface using a commercially available amine coupling kit (Biacore, GE Healthcare, catalog NO: BR100050). […] Dissociation was monitored for 5 min. After each cycle, the Series S CM5 Sensor Chip surface coated with recombinant CD47 proteins was regenerated with 30 μl of 10 mM Glycine pH 1.5 (Biacore, GE Healthcare, catalog NO: BR100354). Experimental data were processed using the 1:1 Langmuir kinetic fitting model. Measurements included zero-concentration samples for referencing. Chi², U- and residual values were used to evaluate the quality of a fit between the experimental data and individual binding models.

[1] = target: T1, cynomolgus CD47-ECD-Avi-His; assay: SPR, CD47 amine-coupled, Fab analyte, 1:1 fit
Procedure: as §1

| Binder | Kd (human CD47-ECD-Avi-His) [nM] | Kd [1] [nM] |
| --- | --- | --- |
| anti-CD47-UCP01-G2 FAB (Fab, V domains shown, human IgG1 Fab) VH: EVQLVESGGGLIQPGGSLRLSCAASGFTVSNSYMTWVRQAPGKGLEWVSVIYKYGKTSYADSVKGRFTISRDNSKNTLYLQMNSLRAEDTAVYYCARGLTVSPYWGGAFDYWGQGTLVTVSS VL: not shown | 183 | 190 |
| anti-CD47-UCP01-B3 FAB (Fab, V domains shown, human IgG1 Fab) VH: EVQLVESGGGLIQPGGSLRLSCAASGFTFSNNYMSWVRQAPGKGLEWVSVIYKKGFTNYADSVKGRFTISRDNSKNTLYLQMNSLRAEDTAVYYCARGLSVDKYDGGPFDYWGQGTLVTVSS VL: not shown | 316 | 340 |
| anti-CD47-UCP01-A1 FAB (Fab, V domains shown, human IgG1 Fab) VH: QVQLVQSGAEVKKPGSSVKVSCKASGGFFRLYAFSWVRQAPGQGLEWMGGIIPTDGFVGYAQKFQGRVTITADESTSTAYMELSSLRSEDTAVYYCARSRYYRPYGEYYVVGYGFAYWGQGTLVTVSS VL: not shown | 292 | 15.9 |
| anti-CD47-UCP02-H3 FAB (Fab, V domains shown, human IgG1 Fab) VH: QVQLVQSGAEVKKPGSSVKVSCKASGGFFRLYAFSWVRQAPGQGLEWMGGIIPTDGFVGYAQKFQGRVTITADESTSTAYMELSSLRSEDTAVYYCARSRYYRPYGEYYVVGYGFAYWGQGTLVTVSS VL: not shown | 455 | 17.8 |
| anti-CD47-UCP01-G1 FAB (Fab, V domains shown, human IgG1 Fab) VH: EVQLLESGGGLVQPGGSLRLSCAASGFTFSNYAMAWVRQAPGKGLEWVSVISVEGGLTVYADSVKGRFTISRDNSKNTLYLQMNSLRAEDTAVYYCARGSRDSRGKYGAFDVWGQGTLVTVSS VL: not shown | 136 | 214 |

Next, values leading:

| Kd (human CD47-ECD-Avi-His) [nM] | Kd [1] [nM] | Binder |
| --- | --- | --- |
| 1010 | 1120 | anti-CD47-UCP02-B3 FAB (Fab, V domains shown, human IgG1 Fab) VH: QVQLVQSGAEVKKPGSSVKVSCKASGGRFRLYGINWVRQAPGQGLEWMGGISPIDGYAAYAQKFQGRVTITADESTSTAYMELSSLRSEDTAVYYCARSRRPYSASASYPGYGMDVWGQGTLVTVSS VL: not shown |
| 193 | 113 | anti-CD47-UCP02-C1 FAB (Fab, V domains shown, human IgG1 Fab) VH: QVQLVQSGAEVKKPGSSVKVSCKASGGFFSAHTISWVRQAPGQGLEWMGRITAVRGVPTYAQKFQGRVTITADESTSTAYMELSSLRSEDTAVYYCARASYGGPRYYWDGLDIWGQGTLVTVSS VL: not shown |
| 822 | 1070 | anti-CD47-UCP01-A2 FAB (Fab, V domains shown, human IgG1 Fab) VH: EVQLLESGGGLVQPGGSLRLSCAASGFTFSRFAMGWVRQAPGKGLEWVSIISPNGHVTAYADSVKGRFTISRDNSKNTLYLQMNSLRAEDTAVYYCARDGLSVSSQGVAFDYWGQGTLVTVSS VL: not shown |
| 1170 | 1260 | anti-CD47-UCP01-A3 FAB (Fab, V domains shown, human IgG1 Fab) VH: EVQLVESGGGLIQPGGSLRLSCAASGFTFTNSWMSWVRQAPGKGLEWVSVIYKYGFTEYADSVKGRFTISRDNSKNTLYLQMNSLRAEDTAVYYCARGSSIAAYAYAAPYRGGWMDVWGQGTLVTVSS VL: not shown |
